Measured values published in the supplement of paper PMC7877785.
± gives the uncertainty stated by the source.

Experiment: self-splicing fitness, log relative to wild type (ln ratio); higher = more splicing; Tetrahymena group I intron in knt gene, E. coli kanamycin selection, DiMSum; sequences stand for … in CUCUCU…GGAGGGAAAAGUUAUCAGGCAUGCACCUGGUAGCUAGUCUUUAAACCAAUAGAUUGCAUCGGUUUAAAAGGCAAGACCGUCAAAUUGCGGGAAAGGGGUCAACAGCCGUUCAGUACCAAGUCUCAGGGGAAACUUUGAGAUGGCCUUGCAAAGGGUAUGGUAAUAAGCUGACGGACAUGGUCCUAACCACGCAGCCAAGUCCUAAGUCAACAGAUCUUCUGUUGAUAUGGAUGCAGUUCACAGACUAAAUGUCGGUCGGGGAAGAUGUAUUCUUCUCAUAAGAUAUAGUCGGACCUCUCCUUAAUGGGAGCUAGCGGAUGAAGUGAUGCAACACUGGAGCCGCUGGGAACUAAUUUGUAUGCGAAAGUAUAUUGAUUAGUUUUGGAGUACUCGUGGUCG
Method in brief: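 The eight P1ex-region nucleotides of an intron in the knt kanamycin-resistance gene on pET-22b(+) were all randomised and the library put into E. coli BL21(DE3). Six replicate transformations were grown overnight at 37°C or 30°C on LB agar with or without 25 μg/mL kanamycin, together with 100 μg/mL carbenicillin, 50 μM IPTG and 0.2% rhamnose. Colonies were pooled and amplicon-sequenced on an Illumina HiSeq 2500. Fitness from DiMSum is the error-weighted combination of wild-type-normalised replicate fold changes, kanamycin over none.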

Sequence	self-splicing fitness (ln) (30 °C)	self-splicing fitness (ln) (37 °C)
ACCCAGCAAUAUUACGCAAC	-2.62 ± 0.12	-0.73 ± 0.11
ACCCAGCAAUAUUACGCAAG	-2.81 ± 0.11	-1.14 ± 0.11
ACCCAGCAAUAUUACGCAUU	-0.546 ± 0.043	0.216 ± 0.061
ACCCAGCAAUAUUACGCCGA	-1.26 ± 0.075	-1.14 ± 0.082
ACCCAGCAAUAUUACGCCGC	-3.12 ± 0.18	-2.37 ± 0.2
ACCCAGCAAUAUUACGCCUU	-0.51 ± 0.062	0.161 ± 0.081
ACCCAGCAAUAUUACGCUAA	-1.67 ± 0.069	-1.33 ± 0.068
ACCCAGCAAUAUUACGGCCA	-1.17 ± 0.075	-0.171 ± 0.09
ACCCAGCAAUAUUACGGCGU	-2.08 ± 0.081	-0.746 ± 0.084
ACCCAGCAAUAUUACGGGUG	-2.14 ± 0.061	-0.937 ± 0.058
ACCCAGCAAUAUUACGGUGU	-2.69 ± 0.076	-1.64 ± 0.11
ACCCAGCAAUAUUACGUACU	-1.12 ± 0.059	-0.926 ± 0.08
ACCCAGCAAUAUUACGUAGA	-2.03 ± 0.1	-1.39 ± 0.11
ACCCAGCAAUAUUACGUCGA	-1.03 ± 0.078	-0.528 ± 0.077
ACCCAGCAAUAUUACGUCGC	-1.39 ± 0.069	-0.784 ± 0.076
ACCCAGCAAUAUUACGUCUA	-1.41 ± 0.093	-0.988 ± 0.09
ACCCAGCAAUAUUACGUUAA	-1.6 ± 0.078	-0.769 ± 0.071
ACCCAGCAAUAUUACGUUCU	-1.31 ± 0.062	-1 ± 0.071
ACCGAGCAAUAUUACGAAUC	-4.8 ± 0.42	-2.61 ± 0.32
ACCGAGCAAUAUUACGAGCG	-3.24 ± 0.21	-0.734 ± 0.16
ACCGAGCAAUAUUACGAGGG	-3.2 ± 0.17	-3.06 ± 0.21
ACCGAGCAAUAUUACGAUCA	-2.6 ± 0.24	-0.928 ± 0.19
ACCGAGCAAUAUUACGCACU	-1.62 ± 0.14	-0.517 ± 0.13
ACCGAGCAAUAUUACGCCUU	-2.75 ± 0.24	-1.32 ± 0.19

Sequence	self-splicing fitness (ln) (30 °C)	self-splicing fitness (ln) (37 °C)
ACCGAGCAAUAUUACGCGUA	-2.38 ± 0.14	-0.999 ± 0.12
ACCGAGCAAUAUUACGGAAU	-3.65 ± 0.2	-2.33 ± 0.25
ACCGAGCAAUAUUACGGAGA	-1.34 ± 0.29	-1.48 ± 0.28
ACCGAGCAAUAUUACGUGAA	-4.46 ± 0.17	-2.3 ± 0.14
ACCGAGCAAUAUUACGUUGC	-3.29 ± 0.32	-1.33 ± 0.25
ACCUAGCAAUAUUACGAACG	-1.25 ± 0.12	-1.07 ± 0.19
ACCUAGCAAUAUUACGAAUU	-2.72 ± 0.13	-0.574 ± 0.12
ACCUAGCAAUAUUACGACGA	-0.405 ± 0.11	-0.784 ± 0.093
ACCUAGCAAUAUUACGCCAC	-2.11 ± 0.4	
ACCUAGCAAUAUUACGCCUC	-1.88 ± 0.13	-1.51 ± 0.15
ACCUAGCAAUAUUACGGAAA	-1.79 ± 0.16	-1.51 ± 0.12
ACCUAGCAAUAUUACGGAAU	-1.96 ± 0.08	-1.19 ± 0.09
ACCUAGCAAUAUUACGGAGU	-3.61 ± 0.13	-2.39 ± 0.12
ACCUAGCAAUAUUACGGCCA	-1.33 ± 0.13	-0.234 ± 0.12
ACCUAGCAAUAUUACGGCGU	-0.278 ± 0.056	0.12 ± 0.07
ACCUAGCAAUAUUACGGGGC	-3.06 ± 0.15	-1.66 ± 0.15
ACCUAGCAAUAUUACGGGUC	-4.05 ± 0.23	-2.57 ± 0.23
ACCUAGCAAUAUUACGGUAG	-3.45 ± 0.15	-2.49 ± 0.18
ACCUAGCAAUAUUACGGUCA	-1.74 ± 0.091	-0.306 ± 0.082
ACCUAGCAAUAUUACGGUCU	-1.69 ± 0.096	-0.98 ± 0.11
ACCUAGCAAUAUUACGUAAC	-2.22 ± 0.12	-1.66 ± 0.18
ACCUAGCAAUAUUACGUACU	-0.755 ± 0.052	-0.159 ± 0.062
ACCUAGCAAUAUUACGUCAA	-2.03 ± 0.2	-1.78 ± 0.17
ACCUAGCAAUAUUACGUGAU	-1.5 ± 0.057	-0.344 ± 0.074
